The target in test [1] is VPS29–VPS35C subcomplex (UniProt Q96QK1;Q9UBQ0). The experiment in a line: crystal structure.
For test [2], the target named is VPS29 (as expressed for the complexes, pMR101A‐VPS29) (UniProt Q9UBQ0). In words: crystal structure.

B1: peptide FAM21‐R21 (1328-SNIFDDPLNAFGGQ-1341) (peptide)
peptide: SNIFDDPLNAFGGQ
Regarding B1, the binding result in test [1] and in test [2] was “binds” each time.

(Values after PMC11010949 (Protein Science : A Publication of the Protein Society, 2024).)
